Test results taken from the nanobody polyreactivity screen of Harvey et al. (2022).

Assay: yeast display, Sf9 membrane polyspecificity reagent, FACS + sequencing; frameworks hold sequencing errors
How it was run: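 A synthetic nanobody library was expressed on Saccharomyces cerevisiae BJ5465 by galactose induction for 36–48 hours. The library was stained for 1 hour at 4 °C with 10% biotinylated, detergent-solubilized Sf9 membrane reagent and enriched with streptavidin microbeads before FACS. Low and high (top ~1%) gates were set on anti-HA fluorescence for expression and streptavidin fluorescence for reagent binding, and each polyreactivity label reflects the gate of origin.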

Row | Sequence | polyreactivity (PSR sort gate)
1 | QVQLVESGGGLVQAGGSLRLSCAASGRIFSFNAMGWYRQAPGKERELVASGGSTYADSVKGRFTISRDNAKNTVYLQMNSLKPEDTAVYYCAADPFYYFPSPFDYWGQGTQVTVSS | low polyreactivity
2 | QVQLVESAGGLVQAGGSLRLSCAPSGSTFNYYAMGWYRQAPGKESELGAAIDWSGGSTYYADSVKGRFTISRDNAKNTVYLQMNSLKPDDTAVYYCAARTYDYSYGSFDYWGQGTQVTVSS | low polyreactivity
3 | QVQLVESGGGLVQAGGSLRLSCSASGRIFFSYAMGWYRQAPGKERELVAAISRDGGTPYYADSVKGRFTISRDNAKNTVSLLLNSLKPEDTAVYYCADDWYLRRRIYGYWGQGTEVTVSS | high polyreactivity
4 | QVQLVESGGGLVQAGGTLRLSSAASGSIFYRNAMGWYRQAPGKERELVDSITSGGLTNYADSVKGRFTISRDNAKNTVYLHMFSLKPEETAVYYCARGRASYTKSGPTPYTGYGYWGQGTQVTVSS | low polyreactivity
5 | QVQLVESGGGLVQAGGSLRLSCAASGSIFSRNDMGWYRLAPGKERELVAAITSDDTSTYYADSVNGRFTISRDNAKNTVYLQMNSLKPEDTAVYYCAADYGNPFDYWGQGTQVTVSS | low polyreactivity
6 | QVQLVESGGGLVQAGGSLRLSCAASGFIFSYNAMGWYREAPGKERELVAAISSRGGSTYYADSVKGRFTISRDNAKNTVYLQMNSLKPEDTADYYCAVASRRVYTAPYDYWGQGTQVTVSS | high polyreactivity
7 | QVQLVESGGGLVQAGGSLRLSCAASGSIFYVNAMGWYRQAPGKERELVAAISVRGGRTYYADSVKGRFTISRDNAKNTVYLQMNSLKPEDTAVYYCATRISTVGRYDYWGQGTQVTVSS | high polyreactivity
8 | QVQLVESGGGLVQAGGSLRLSCAASGRIFGGNAMVWYRQAPGKERELVAAITTRGGSTYADSVKGRFTISRDNAKNTVYLQMNSLKPEDSAVYYCNKRYVIRRRGYDYWGQGTQVTVSS | low polyreactivity
9 | QVQLVESGGGLVQAGGSLRLSCAASGFTFRRNAMGWYRQAPGKERELVAAISSSGGSTSYADSVKGRFTISRDNAKNTVYLQMNSLKPEDTAVYYCAVEVASYDRRPSEYYWGQGTQVTVSS | high polyreactivity
10 | QVQLVESGGGLVQAGGSLRLSCAASGITFQANAMGWYRQAPGKERELVAAISSSDGSTYYADSVKGRFTISRDNAKNTVYVQMNSLKPEDTAVYYCAADGVVYGWPEYEYWGQGTQVTVSS | low polyreactivity
11 | QVQLVESGGGLVQAGGSLRLSCAASGFTFLDSYAMGWYRQAPGKERELVAGITWSVGTTYYADSVKGRFTISRDNAKNTVYLHMNSLKPEDTAVYYCNAVIDVHDPEYDYWGQGTQVTVSS | low polyreactivity
12 | QVQLVESGGGLVQAGGSLRLSFAASGSTFRYNTRGWYRQAPGKEREVVATITWDTDSTYYADSVKGRFTISRDNAKNTVYLQMNSLKPEDTAVYYCAAETTWADKSYHYLQEYNYCGQGTQVTVSS | low polyreactivity
13 | QVQLVESGGGLVQAGGSLRLSCAASGGIFSCKAMGWYRQAPGKERELVAAITTRGGSTYYADSVKGRFTISRDNAKNSVYLQMNSLKPEDTAVYYCAAEGYEEFNWGQGTQVTVSS | low polyreactivity
14 | QVQLVESGGGLVHAGGSLRLSCAASGFTIERYAMGWYRQAAGKERELVAVISTSGGSTYYADSVNWRYTITRDNAKNSVYLQMNSLKPEDTAVYYCAKDGSSRGDYHFGWGYYYWGQGTQVTVSS | low polyreactivity
15 | QVQLVESGGGLVQAGGSLRLSCAASGSTFPGNAMGWYRQAPGKERELVASISGGGDSTYYADSVKGRFTISRDNAKNTVYLQMISLKPEDTAVYYCAVDIDSNSGTRDYWGQGTQVTVSS | low polyreactivity
16 | QVQLVESGGGLVQAGGSLRLSCAASGSTFYSNVMGWYRQAPGKERELLAAISQSGGRTFYADSVKGRFTISRDNAKITVYLQMNSLKPEDSAVYYSNASSGNRYGPRYDYWGQGTQVTVSS | high polyreactivity
17 | QVQLVESGGGLVQAGGSLRLSCAASGFISGSNVMGWYRQAPGKERELVAAINWSGDNTYYADSVKGRFTISRDNAKNTVYLQMNSLKPEDTAVYYCNADVYSYATPEMDYWGQGTQVTVSS | low polyreactivity
18 | QVNLLDSGGGLVKAGGSLRLTCAASGSIYHPYTMGLYRQATGKETELVAAISWSGGNTNYADSVKGRFTISRDYAKNTVYLQMNSLKPEDTAVYYFAAAKRDFVEYDYWGEGTQVTVSS | low polyreactivity
19 | QVQLVESGGGLVQAGGSLRLSCAASGRIFVRNAMGWYRQAPGKERELVAGISKRGSRTYYADSVKGRFTISRDNPKNTVYLQMNSLKPEDTAVYYCAVRSYIASYRDARIRFYYWGQGTQVTVSS | high polyreactivity
20 | QVQLVESGGGLVQAGGSLRLSCAASGFTFRFYVMVWYRLAPGKERELVAAITASGGTTYYADSVKGRFTISRDNAKNSVYLQMNSLKPEDTAVYYCNALYYYLYGYDYWGQGTQVTVSS | high polyreactivity
21 | QVQLVESGGGLVQAGGNLRLSCASSGIIFFKYAMGWYRPEPGKERELVAAITSGGSTYYADSVKWRFTISRDNAKKTVYLQMNSLKPEDTAVYYCAAAGGRFIRYCYWGQGTQVTVSS | high polyreactivity
22 | QVQLVESGGGLVQAGGSLRLSCAASRFIFWPYAMGWYRPAPGKERELVAAITTGGSTNYADSVKGRFTISRDNAKNTVYFQMNSLKPEDTAVYYCAKGYYFGYYEFVYWGQGTQVTVSS | high polyreactivity

Row | Sequence | polyreactivity (PSR sort gate)
23 | QVQLVESGGGLVQAGGSLRLSCAASGSIFGYYAMGWYRQAPGTERELVAAITTGGSTSYADSVKGRFTISRDNAKNTVYLQMNSLKPEDTAVYYCAARPHHGWLEYGSAGLGYWGQGTQVTVSS | low polyreactivity
24 | QVQLVESVGGLVQAGGSLRLSCAASGFTFHDYAMGWYRQAPGKERELVAAIYFSGGRTYYADSVKGRFTISRDNAKNTVYLQMNSLKPEDNAVYYCNVPYYSFRELSSYYWGQGTQVTVSS | high polyreactivity
25 | QVQLVESGGGLVQAGGSLRLSCAASGSTFVRNAMGWYRQAPGKERELVAGISTGDNTYYADSVKGRFTISRDNAKNTVYLQMNSLKPEDSAVYYCAARGLPSNYYYYVHGYIMDYWGQGTQVTVSS | low polyreactivity
26 | QVQLVESGGGLVQAGGSLRLSCAASGNIFGFYTMGWYRQAPGKERELVAAIRSRGGSTNYADSVKGRFTISRDNAKNTVYLQMNSLKPEDTAVDYCAADPRYISYDYWGQGTQVTVSS | low polyreactivity
27 | QVQLVESGGGLVQAGGSLRLSCAASGINFAAYVMGWYRQAPGKERELFAAISKSGGRTYYADSVKGRFTISRDNAKNTVYLQMNSLKPEDTAVYYCAASYTYFSFGIGTDVRYGYWGQGTQVTVSS | high polyreactivity
28 | QVQLVESGGGLVQAGGSHRLSCAASGSIFKRNAMRSYRQAPGKERELVAAISRSGGSTYYADSVKGRFTISRDFAKNTVYLQMNSLKPEDTAVYYCDARRKLGYGSENDYWGQGTQVTVSS | high polyreactivity
29 | QVQHVESGGGLVQAGGSLRLSCASSGSTFWAYAMGWYRLAPGKERELVATITGSVGGTYYADSVKGRFTISRDNAKNTVYLQMNSLKPEDTAVYYCATDAYVKGVYEISEDRVDYWGQGTQVTVSS | low polyreactivity
30 | QVQLVESGGGLVQAGGSLRLSCAASGIIQGVYALGWYRQAPGKERELVAAITSSGGSTYYADSVKGRFTISRDNAKNTVYLQMNSLKPEDTAVYYCAADFDTSVRLYGPTRYDYWGQGTQVTVSS | low polyreactivity
31 | QVQLVESGGGLVQAGGSLRLSCAASGSIFYINAMGWYRQAPGKERELVAAIRSGGSTNYADSVKGRFTISRDNAKNTVYLQMNSLKPEDTAVYYCNARSRSYVPYYYWGQGTQVTVSS | high polyreactivity
32 | QLQLVESGGGLVQAGGSLRLSCAASGTIFDTYAMGWSRQAPGKEMELVAAIRWTGGSTYYADSVKGRFTISRENAKNTVYFQMNSLKPEDTAVYYCAATWYYHYNDWKPWFEYGYWGQGTQVTVSS | low polyreactivity
33 | QVQLVESGGGLDQAGGSLRLSCAASGSTFRSYAMGWYRQAPGKERELVAVISSGDSTYYADSVKGRFTISRDNAKNTVYLQMNSLKQEDTAVYYCAADSYVLGRWYGYWGQGTQVTVSS | low polyreactivity
34 | QVQLVESGGGLVQAGGSLRLSCAASGSIFGSYARGRYRQAPVKERELVAGITYRGSSTYYADSVKGRFTISRDKAKNTVYLQMNSLKPEDTAVYYCAADPVFDEYDYWGQGTQVTVSS | low polyreactivity
35 | QVQLVESGGGLVQAGGSLRLRCAASGSIFNSYAMGWYIQAPGKERELVAAISIRGTRTYYADSVKGRFTISRDNAKNTVYLQMNSLKPEDTAVYYCAADASYTEGMDYWGQGTQVTVLS | high polyreactivity
36 | QVQLVESGGGLVQAGGSLRLSCAASGSTIDRYAMGWYIQAPGKEREFVAAISFSSASTYYADSVKGRFTISRDNAKNTVYLQMNSLKPEDTAVYYCNADFFDSGGSIEYDSWGQGTQVTVSS | low polyreactivity
37 | QVQLVESGGGLVQAGGSLRLSCAASGSIFGDYAMGWYRQAPGKERELVADISSGGSTTYADSVTGRFTISRDNAKNTVYLQMNSLKPEDTAVYYCAVDGGDFSSYGNWGQGTQVTVSS | low polyreactivity
38 | QVQLVESGGGLVQAGGSLRLSCAASGSIFSYYAMGWYRQAPGKERELVAAISYSGSDTYYADSVKGRFTISRDNAKNTVSFQMNSLKPEDTAVYYCAAEDPSYSYHYWGQGTQVTVSS | low polyreactivity
39 | QVQLVESGGGLVQAGGSHRLSCSASGLTFSYYAMGGYRQEPGKERELVAAITRTGDRTYYADSVKGRFTISRDNAKNTVYLQMNSLKPEDTAVYYCAAKWRIVGSRQWYDYWGQGTQVTVSS | high polyreactivity
40 | QVQLVESGGGLVQAGGSLRLSCAASGSTFRAYAMGWYRQAPGKERELVAAISSGGSTYYADSVKGRFTISRDNAKITVYLQMNCLKPEDTAVYHCAKGWYYVSPYGYRKGVYYWGQGTKVTVSS | high polyreactivity
41 | QVQLVESGGGLVQAGGSLRLSCAASGSTFLVNAMGWYRQAPGKERELVAAITQSGGSTFYADSVKGRFTISRDNEKNTVYLQMNSLKPEDTAVYYWGQGTQVSVSS | low polyreactivity
42 | QVQLVESGGGLVQAGGILRLSCAASGFTIYYYAIGWYRQAPGKERELVASITSGGSTYYADSVKGRFTISRDNAKNSVYLQMNSLKPEDTAVYYCAKTRFHYKEGDYWGQGTQVTVSS | low polyreactivity
43 | QVQLVESGGGLVQAGGSLRLSCAASGRTYWPNALGWSRQARGKERELVAAISWRGGSTSYADSVKGRFTISRDNAKNTVYLQMNRLKPEDTAVYYCAATSIRRNSKVLISGRLYDYWGQGTQVTVSS | high polyreactivity
